Results from patent US20240360238A1 (MAGENTA THERAPEUTICS, published 2024).

Biological target: T1, purified human CD117 ectodomain (R&D Systems #332-SR) (human, UniProt P10721 26-524)
T1 construct: extracellular domain; Bought protein; also called c-kit; purified recombinant human CD117 ectodomain
Experiment: BLI, purified IgG on sensor, soluble ectodomain; apparent monovalent

T1 sequence (P10721 26-524): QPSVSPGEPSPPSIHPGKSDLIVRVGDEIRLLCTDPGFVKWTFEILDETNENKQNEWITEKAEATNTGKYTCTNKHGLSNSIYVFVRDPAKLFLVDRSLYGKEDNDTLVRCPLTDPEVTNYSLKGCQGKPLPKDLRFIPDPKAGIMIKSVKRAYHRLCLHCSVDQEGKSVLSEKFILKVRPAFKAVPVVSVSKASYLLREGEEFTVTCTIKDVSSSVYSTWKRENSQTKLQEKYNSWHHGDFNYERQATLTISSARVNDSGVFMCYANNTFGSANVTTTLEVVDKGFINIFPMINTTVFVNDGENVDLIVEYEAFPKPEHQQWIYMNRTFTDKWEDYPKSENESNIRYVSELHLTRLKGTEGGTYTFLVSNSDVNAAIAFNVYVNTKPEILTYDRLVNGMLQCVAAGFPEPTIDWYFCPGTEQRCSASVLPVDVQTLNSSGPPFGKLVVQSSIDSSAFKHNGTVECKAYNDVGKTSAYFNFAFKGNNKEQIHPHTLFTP

Binder | Kd | koff | kon
HC-2/LC-2 (Ab2) (antibody, IgG1, V domains shown, Purified IgG; also called 002) VH: QVQLVQSGAAVKKPGESLKISCKGSGYRFTTYWIGWVRQMPGKGLEWMGIIYPGDSDTRYSPSFQGQVTISAGKSISTAYLQWSSLKASDTAMYYCARHGRGYNGYEGAFDIWGQGTMVTVSS VL: DIQLTQSPSSLSASVGDRVTITCRASQGIRTDLGWYQQKPGKAPKLLIYDASSLESGVPSRFSGSGSGTDFTLTISSLQPEDFATYYCQQFNSYPLTFGGGTKVEIK | 0.729 nM | 0.00027 s⁻¹ | 370000 M⁻¹ s⁻¹
HC-10/LC-10 (Ab10) (antibody, IgG1, V domains shown, Purified IgG; also called 010) VH: QVQLVQSGAAVKKPGESLKISCKGSGYRFTTYWIGWVRQMPGKGLEWMGIIYPGDSDTRYSPSFQGQVTISAGKSISTAYLQWSSLKASDTAMYYCARHGRGYNGYEGAFDIWGQGTMVTVSS VL: NIQMTQSPSSLSTSVGDRVTITCRASQGIGTSLAWYQQKPGKPPKLLIYDASSLESGVPSRLSGSGSGTDFTLTISSLQPEDFATYYCQQSNSYPITFGQGTRLEIK | 1.68 nM | 0.000585 s⁻¹ | 348000 M⁻¹ s⁻¹
HC-9/LC-9 (Ab9) (antibody, IgG1, V domains shown, Purified IgG; also called 009) VH: QVQLVQSGAAVKKPGESLKISCKGSGYRFTTYWIGWVRQMPGKGLEWMGIIYPGDSDTRYSPSFQGQVTISAGKSISTAYLQWSSLKASDTAMYYCARHGRGYNGYEGAFDIWGQGTMVTVSS VL: AIRMTQSPSSLSASVGDRVTITCQASQGIRNDLGWYQQKPGKAPKLLIYDASNLETGVPSRFSGSGSGTDFTFTISSLQPEDIATYYCQQFNSYPLTFGGGTKLEIK | 1.51 nM | 0.000427 s⁻¹ | 283000 M⁻¹ s⁻¹
HC-6/LC-6 (Ab6) (antibody, IgG1, V domains shown, Purified IgG; also called 006) VH: QVQLVQSGAAVKKPGESLKISCKGSGYRFTTYWIGWVRQMPGKGLEWMGIIYPGDSDTRYSPSFQGQVTISAGKSISTAYLQWSSLKASDTAMYYCARHGRGYNGYEGAFDIWGQGTMVTVSS VL: AIRMTQSPSSLSASVGDRVIIACRASQGIGGALAWYQQKPGNAPKVLVYDASTLESGVPSRFSGGGSGTDFTLTISSLQPEDFATYYCQQFNSYPLTFGGGTKLEIK | 3.72 nM | 0.00117 s⁻¹ | 315000 M⁻¹ s⁻¹
HC-13/LC-13 (Ab13) (antibody, IgG1, V domains shown, Purified IgG; also called 013) VH: QVQLVQSGAAVKKPGESLKISCKGSGYRFTTYWIGWVRQMPGKGLEWMGIIYPGDSDTRYSPSFQGQVTISAGKSISTAYLQWSSLKASDTAMYYCARHGRGYNGYEGAFDIWGQGTMVTVSS VL: DIVMTQSPSSLSASVGDRVTITCRASQGIRNDLGWYQQKPGKAPKLLIYDASSLESGVPSRFSGSGSGTDFTLTISSLQPEDFATYYCQQFNSYPLTFGGGTKLEIK | 1.55 nM | 0.000488 s⁻¹ | 314000 M⁻¹ s⁻¹
HC-16/LC-16 (Ab16) (antibody, IgG1, V domains shown, Purified IgG; also called 016) VH: QVQLVQSGAAVKKPGESLKISCKGSGYRFTTYWIGWVRQMPGKGLEWMGIIYPGDSDTRYSPSFQGQVTISAGKSISTAYLQWSSLKASDTAMYYCARHGRGYNGYEGAFDIWGQGTMVTVSS VL: AIQLTQSPSSLSASVGDRVTITCRASQGITSALAWYQEKPGKAPNLLIYDASSLESGVPSRFSGSGYGTDFTLTISSLQPEDFATYYCQQLNSYPLTFGGGTKVDIK | 2.93 nM | 0.000949 s⁻¹ | 324000 M⁻¹ s⁻¹
HC-5/LC-5 (Ab5) (antibody, IgG1, V domains shown, Purified IgG; also called 005) VH: QVQLVQSGAAVKKPGESLKISCKGSGYRFTTYWIGWVRQMPGKGLEWMGIIYPGDSDTRYSPSFQGQVTISAGKSISTAYLQWSSLKASDTAMYYCARHGRGYNGYEGAFDIWGQGTMVTVSS VL: NIQMTQSPSSLSASVGDRVTITCRASQAISDYLAWFQQKPGKAPKLLIYDASNLETGVPSRFSGSGSGTDFTLTISSLQPEDFATYYCQQLNSYPLTFGGGTKVEIK | 1.21 nM | 0.000461 s⁻¹ | 380000 M⁻¹ s⁻¹
HC-15/LC-15 (Ab15) (antibody, IgG1, V domains shown, Purified IgG; also called 015) VH: QVQLVQSGAAVKKPGESLKISCKGSGYRFTTYWIGWVRQMPGKGLEWMGIIYPGDSDTRYSPSFQGQVTISAGKSISTAYLQWSSLKASDTAMYYCARHGRGYNGYEGAFDIWGQGTMVTVSS VL: AIQLTQSPSSLSASVGDRVTITCRASQGIGSALAWYQQKPGIGPKLLIYDASTLESGVPARFSGSGSRTDFTLTITSLQPEDFATYYCQQFNGYPLTFGGGTKLEIK | 0.979 nM | 0.00026 s⁻¹ | 265000 M⁻¹ s⁻¹
HC-3/LC-3 (Ab3) (antibody, IgG1, V domains shown, Purified IgG; also called 003) VH: QVQLVQSGAAVKKPGESLKISCKGSGYRFTTYWIGWVRQMPGKGLEWMGIIYPGDSDTRYSPSFQGQVTISAGKSISTAYLQWSSLKASDTAMYYCARHGRGYNGYEGAFDIWGQGTMVTVSS VL: AIRMTQSPSSLSASVGDRVTITCRASQGIRNDLAWYQQKPGKTPKLLIYDASSLESGVPSRFSGSGSGTDFTLTISSLQPEDFATYYCQQFNSYPLTFGGGTKVEIK | 1.02 nM | 0.000352 s⁻¹ | 346000 M⁻¹ s⁻¹
HC-14/LC-14 (Ab14) (antibody, IgG1, V domains shown, Purified IgG; also called 014) VH: QVQLVQSGAAVKKPGESLKISCKGSGYRFTTYWIGWVRQMPGKGLEWMGIIYPGDSDTRYSPSFQGQVTISAGKSISTAYLQWSSLKASDTAMYYCARHGRGYNGYEGAFDIWGQGTMVTVSS VL: DIQLTQSPSSLSASVGDRVTITCRASQGISSFLAWYQQKPGKAPKLLIYDASTLQSGVPSRFSGSASGTDFTLTISSLQPEDFATYYCQQLNGYPLTFGGGTKVEIK | 2.03 nM | 0.000577 s⁻¹ | 284000 M⁻¹ s⁻¹
HC-7/LC-7 (Ab7) (antibody, IgG1, V domains shown, Purified IgG; also called 007) VH: QVQLVQSGAAVKKPGESLKISCKGSGYRFTTYWIGWVRQMPGKGLEWMGIIYPGDSDTRYSPSFQGQVTISAGKSISTAYLQWSSLKASDTAMYYCARHGRGYNGYEGAFDIWGQGTMVTVSS VL: DIAMTQSPPSLSAFVGDRVTITCRASQGIISSLAWYQQKPGKAPKLLIYDASSLESGVPSRFSGSGSGTDFTLTIRSLQPEDFATYYCQQFNSYPLTFGGGTKLEIK | 0.99 nM | 0.000272 s⁻¹ | 275000 M⁻¹ s⁻¹
HC-4/LC-4 (Ab4) (antibody, IgG1, V domains shown, Purified IgG; also called 004) VH: QVQLVQSGAAVKKPGESLKISCKGSGYRFTTYWIGWVRQMPGKGLEWMGIIYPGDSDTRYSPSFQGQVTISAGKSISTAYLQWSSLKASDTAMYYCARHGRGYNGYEGAFDIWGQGTMVTVSS VL: AIQMTQSPSSLSASVGDRVTITCRASQGIRNDLGWYQQKPGKAPKLLIYDASSLESGVPSRFSGSGSGTDFTLTISSLQPEDFATYYCQQFNSYPLTFGGGTKVDIK | 1.18 nM | 0.000405 s⁻¹ | 345000 M⁻¹ s⁻¹
HC-8/LC-8 (Ab8) (antibody, IgG1, V domains shown, Purified IgG; also called 008) VH: QVQLVQSGAAVKKPGESLKISCKGSGYRFTTYWIGWVRQMPGKGLEWMGIIYPGDSDTRYSPSFQGQVTISAGKSISTAYLQWSSLKASDTAMYYCARHGRGYNGYEGAFDIWGQGTMVTVSS VL: DIQMTQSPSSLSASVGDRVTITCRASQGISSALAWYQQKAGKAPKVLISDASSLESGVPSRFSGSGSGTDFTLSISSLQPEDFATYYCQQFNGYPLTFGGGTKVDIK | 0.908 nM | 0.000264 s⁻¹ | 290000 M⁻¹ s⁻¹
HC-12/LC-12 (Ab12) (antibody, IgG1, V domains shown, Purified IgG; also called 012) VH: QVQLVQSGAAVKKPGESLKISCKGSGYRFTTYWIGWVRQMPGKGLEWMGIIYPGDSDTRYSPSFQGQVTISAGKSISTAYLQWSSLKASDTAMYYCARHGRGYNGYEGAFDIWGQGTMVTVSS VL: DIQLTQSPSSLSASVGDRVTITCRASQGVRSTLAWYQQKPGKAPKLLIYDASILESGVPSRFSGSGSGTDFTLTISSLQPEDFATYYCQQFNGYPLTFGQGTRLEIK | 0.911 nM | 0.000268 s⁻¹ | 294000 M⁻¹ s⁻¹
